Reference: patent US20260055205A1 (published 2026)
Positions count from the first letter of the chain named.

B1: CD3.201 (bispecific antibody, V domains shown)
VH: EVQLLESGGGIVQPGGSLRLSCAASGFTFNTYAMNWVRQAPGKGLEWVGRIRSKRNNYATYYADSVKGRFTISRDDSKNTVYLQMNSLKTEDTAVYYCVRHENFGNSYVSWFAHWGQGTLVTVSS
VL: ELVVTQEPSLTVSPGGTVTLTCRSSNGAVTSSNYANWVQQKPGQAPRGLIGGTNKRAPGTPARFSGSLLGGKAALTLSGVQPEDEAVYYCALWYPNLWVFGGGTKLTVL
notes: paTCE with PSMA.262; also called AC3632
B2: CD3.220 (bispecific antibody, V domains shown)
VH: B1 VH with L5V, N30S, S53T, S87E
VL: B1 VL
notes: paTCE with PSMA.262; also called AC3651
B3: CD3.217 (bispecific antibody, V domains shown)
VH: B1 VH with L5V, N30S, R55Y, N57D
VL: B1 VL
notes: paTCE with PSMA.262; also called AC3648
B4: CD3.241 (bispecific antibody, V domains shown)
VH: B1 VH with L5V, G49A, R55T, Y61T, G68D
VL: B1 VL
notes: paTCE with PSMA.262; also called AC3672
B5: CD3.218 (bispecific antibody, V domains shown)
VH: B1 VH with L5V, N30S, R55Y, Y61T
VL: B1 VL
notes: paTCE with PSMA.262; also called AC3649
B6: CD3.252 (bispecific antibody, V domains shown)
VH: B1 VH with L5V, R55K, Y61T, G68D
VL: B1 VL
notes: paTCE with PSMA.262; also called AC3683
B7: CD3.233 (bispecific antibody, V domains shown)
VH: B1 VH with L5V, S53T, R55Y, Y61T
VL: B1 VL
notes: paTCE with PSMA.262; also called AC3664
B8: CD3.205 (bispecific antibody, V domains shown)
VH: B1 VH with R55Y, N57D
VL: B1 VL
notes: paTCE with PSMA.262; also called AC3636
B9: CD3.234 (bispecific antibody, V domains shown)
VH: B1 VH with L5V, N30S, S53T, R55Y, Y61T
VL: B1 VL
notes: paTCE with PSMA.262; also called AC3665
B10: CD3.208 (bispecific antibody, V domains shown)
VH: B1 VH with L5V, R55Y, Y61T
VL: B1 VL
notes: paTCE with PSMA.262; also called AC3639
B11: CD3.212 (bispecific antibody, V domains shown)
VH: B1 VH with L5V, N30S, R55T, S87E
VL: B1 VL
notes: paTCE with PSMA.262; also called AC3643
B12: CD3.244 (bispecific antibody, V domains shown)
VH: B1 VH with L5V, R55Y, Y58G, V81L
VL: B1 VL
notes: paTCE with PSMA.262; also called AC3675
B13: CD3.206 (bispecific antibody, V domains shown)
VH: B1 VH with L5V, R55Y, N57D
VL: B1 VL
notes: paTCE with PSMA.262; also called AC3637
B14: CD3.231 (bispecific antibody, V domains shown)
VH: B1 VH with L5V, S53T, R55Y, N57D
VL: B1 VL
notes: paTCE with PSMA.262; also called AC3662
B15: CD3.239 (bispecific antibody, V domains shown)
VH: B1 VH with L5V, G49A, Y61T, G68D
VL: B1 VL
notes: paTCE with PSMA.262; also called AC3670
B16: CD3.247 (bispecific antibody, V domains shown)
VH: B1 VH with L5V, G49A, Y61T, G68D, V81L
VL: B1 VL
notes: paTCE with PSMA.262; also called AC3678
B17: CD3.222 (bispecific antibody, V domains shown)
VH: B1 VH with L5V, N30S, S53T, R55T, S87E
VL: B1 VL
notes: paTCE with PSMA.262; also called AC3653
B18: CD3.248 (bispecific antibody, V domains shown)
VH: B1 VH with L5V, G49A, R55K, Y61T, G68D, V81L
VL: B1 VL
notes: paTCE with PSMA.262; also called AC3679
B19: CD3.209 (bispecific antibody, V domains shown)
VH: B1 VH with L5V, S87E
VL: B1 VL
notes: paTCE with PSMA.262; also called AC3640
B20: CD3.213 (bispecific antibody, V domains shown)
VH: B1 VH with L5V, R55Y, N57D, S87E
VL: B1 VL
notes: paTCE with PSMA.262; also called AC3644
B21: CD3.240 (bispecific antibody, V domains shown)
VH: B1 VH with L5V, G49A, R55K, Y61T, G68D
VL: B1 VL
notes: paTCE with PSMA.262; also called AC3671
B22: CD3.211 (bispecific antibody, V domains shown)
VH: B1 VH with L5V, R55T, S87E
VL: B1 VL
notes: paTCE with PSMA.262; also called AC3642
B23: CD3.250 (bispecific antibody, V domains shown)
VH: B1 VH with L5V, S53T, R55Y, Y61T, G68D
VL: B1 VL
notes: paTCE with PSMA.262; also called AC3681
B24: CD3.223 (bispecific antibody, V domains shown)
VH: B1 VH with L5V, S53T, R55Y, N57D, S87E
VL: B1 VL
notes: paTCE with PSMA.262; also called AC3654
B25: CD3.253 (bispecific antibody, V domains shown)
VH: B1 VH with L5V, R55T, Y61T, G68D
VL: B1 VL
notes: paTCE with PSMA.262; also called AC3684
B26: CD3.242 (bispecific antibody, V domains shown)
VH: B1 VH with L5V, R55Y, N57D, V81L
VL: B1 VL
notes: paTCE with PSMA.262; also called AC3673
B27: CD3.204 (bispecific antibody, V domains shown)
VH: B1 VH with L5V, R55T
VL: B1 VL
notes: paTCE with PSMA.262; also called AC3635
B28: CD3.238 (bispecific antibody, V domains shown)
VH: B1 VH with L5V, G49A, S53T, R55Y, Y61T, G68D
VL: B1 VL
notes: paTCE with PSMA.262; also called AC3669
B29: CD3.225 (bispecific antibody, V domains shown)
VH: B1 VH with L5V, S53T, R55Y, Y61T, S87E
VL: B1 VL
notes: paTCE with PSMA.262; also called AC3656
B30: CD3.202 (bispecific antibody, V domains shown)
VH: B1 VH with L5V
VL: B1 VL
notes: paTCE with PSMA.262; also called AC3633
B31: CD3.235 (bispecific antibody, V domains shown)
VH: B1 VH with L5V, R55Y, N57E
VL: B1 VL
notes: paTCE with PSMA.262; also called AC3666
B32: CD3.207 (bispecific antibody, V domains shown)
VH: B1 VH with R55Y, Y61T
VL: B1 VL
notes: paTCE with PSMA.262; also called AC3638
B33: CD3.249 (bispecific antibody, V domains shown)
VH: B1 VH with L5V, G49A, R55T, Y61T, G68D, V81L
VL: B1 VL
notes: paTCE with PSMA.262; also called AC3680
B34: CD3.221 (bispecific antibody, V domains shown)
VH: B1 VH with L5V, S53T, R55T, S87E
VL: B1 VL
notes: paTCE with PSMA.262; also called AC3652
B35: CD3.210 (bispecific antibody, V domains shown)
VH: B1 VH with L5V, N30S, S87E
VL: B1 VL
notes: paTCE with PSMA.262; also called AC3641
B36: CD3.219 (bispecific antibody, V domains shown)
VH: B1 VH with L5V, S53T, S87E
VL: B1 VL
notes: paTCE with PSMA.262; also called AC3650
B37: CD3.245 (bispecific antibody, V domains shown)
VH: B1 VH with L5V, R55Y, Y58G, V81L, S87E
VL: B1 VL
notes: paTCE with PSMA.262; also called AC3676
B38: CD3.226 (bispecific antibody, V domains shown)
VH: B1 VH with L5V, N30S, S53T, R55Y, Y61T, S87E
VL: B1 VL
notes: paTCE with PSMA.262; also called AC3657
B39: CD3.236 (bispecific antibody, V domains shown)
VH: B1 VH with L5V, R55Y, Y58G
VL: B1 VL
notes: paTCE with PSMA.262; also called AC3667
B40: CD3.214 (bispecific antibody, V domains shown)
VH: B1 VH with L5V, N30S, R55Y, N57D, S87E
VL: B1 VL
notes: paTCE with PSMA.262; also called AC3645
B41: CD3.215 (bispecific antibody, V domains shown)
VH: B1 VH with L5V, N30S
VL: B1 VL
notes: paTCE with PSMA.262; also called AC3646
B42: CD3.254 (bispecific antibody, V domains shown)
VH: B1 VH with L5V, S53T, R55Y, Y61T, G68D, S87E
VL: B1 VL
notes: paTCE with PSMA.262; also called AC3685
B43: CD3.246 (bispecific antibody, V domains shown)
VH: B1 VH with L5V, G49A, S53T, R55Y, Y61T, G68D, V81L
VL: B1 VL
notes: paTCE with PSMA.262; also called AC3677
B44: CD3.232 (bispecific antibody, V domains shown)
VH: B1 VH with L5V, N30S, S53T, R55Y, N57D
VL: B1 VL
notes: paTCE with PSMA.262; also called AC3663
B45: CD3.237 (bispecific antibody, V domains shown)
VH: B1 VH with L5V, R55Y, Y58G, S87E
VL: B1 VL
notes: paTCE with PSMA.262; also called AC3668
B46: CD3.216 (bispecific antibody, V domains shown)
VH: B1 VH with L5V, N30S, R55T
VL: B1 VL
notes: paTCE with PSMA.262; also called AC3647
B47: CD3.224 (bispecific antibody, V domains shown)
VH: B1 VH with L5V, N30S, S53T, R55Y, N57D, S87E
VL: B1 VL
notes: paTCE with PSMA.262; also called AC3655

target: T1, human CD3 epsilon (human, UniProt P07766 23-126, limits assumed); assay: Octet, crude lysate
T1 construct: also called huCD3e
Experimental: Pool 2 consisted of paTCE molecules each containing PSMA.262 and one of 64 CD3.23 mutation combination variants. Stability and affinity of the individually expressed molecules in the form of crude lysate was evaluated by Octet. […] The binding of these anti-CD3 molecules (CD3.227, CD3.228, CD3.229 and CD3.230) to human and cynomolgus CD3 was measured by Octet and the Tm was measured by Differential Scanning Fluorimetry. All variants were paired with PSMA.262 except for CD3.23 which was paired with PSMA.5.

T1 sequence (P07766 23-126 limits assumed): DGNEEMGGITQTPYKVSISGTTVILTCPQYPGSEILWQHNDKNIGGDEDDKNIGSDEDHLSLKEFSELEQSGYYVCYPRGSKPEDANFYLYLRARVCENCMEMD

Point of comparison: B4, Kd 92.6 nM. Against it:
- B1 — 11-fold lower, 8.6 nM
- B2 — 19-fold lower, 4.8 nM
- B3 — 8.7-fold lower, 10.7 nM
- B5 — 1.8-fold lower, 52.6 nM
- B6 — 4-fold lower, 22.9 nM
- B7 — 3.7-fold lower, 24.9 nM
- B8 — 13-fold lower, 7.2 nM
- B9 — 5.3-fold lower, 17.4 nM
- B10 — 5.5-fold lower, 16.8 nM
- B11 — 2.6-fold lower, 35.6 nM
- B12 — 2.1-fold lower, 43.6 nM
- B13 — 9-fold lower, 10.3 nM
- B14 — 18-fold lower, 5.1 nM
- B15 — 3.1-fold lower, 29.9 nM
- B16 — 3.2-fold lower, 28.9 nM
- B17 — 8.6-fold lower, 10.8 nM
- B18 — 1.9-fold lower, 49.2 nM
- B19 — 17-fold lower, 5.6 nM
- B20 — 14-fold lower, 6.6 nM
- B21 — 5.6-fold lower, 16.5 nM
- B22 — 9.7-fold lower, 9.5 nM
- B23 — 3-fold lower, 31 nM
- B24 — 15-fold lower, 6 nM
- B25 — within 1.5-fold, 79.9 nM
- B26 — 12-fold lower, 7.7 nM
- B27 — 13-fold lower, 7.2 nM
- B28 — 4-fold lower, 23.1 nM
- B29 — 4.7-fold lower, 19.5 nM
- B30 — 11-fold lower, 8.4 nM
- B31 — 14-fold lower, 6.5 nM
- B32 — 5.9-fold lower, 15.6 nM
- B33 — within 1.5-fold, 128 nM
- B34 — 7.9-fold lower, 11.7 nM
- B35 — 16-fold lower, 5.7 nM
- B36 — 20-fold lower, 4.7 nM
- B37 — 4.8-fold lower, 19.3 nM
- B38 — 1.8-fold lower, 50.9 nM
- B39 — 4.2-fold lower, 21.9 nM
- B40 — 14-fold lower, 6.6 nM
- B41 — 9.5-fold lower, 9.7 nM
- B42 — 2.9-fold lower, 32.3 nM
- B43 — 2.6-fold lower, 35.2 nM
- B44 — 18-fold lower, 5.1 nM
- B45 — 4.2-fold lower, 22.2 nM
- B46 — 8.3-fold lower, 11.2 nM
- B47 — 14-fold lower, 6.4 nM
